Data on seven compounds can be found in patent US10215752B2, “Nanotube array for optical detection of protein-protein interactions” (MASSACHUSETTS INSTITUTE OF TECHNOLOGY, priority 2010, dated 2019).

One test concerns the target T1, PA-IIL lectin (Pseudomonas aeruginosa, UniProt Q9HYN5).
T1 construct: made in house; host or cells: E. coli BL21(DE3) Star
The test is classed as binding. The settings on record: for sensor response / cross response to PA-IIL lectin: controls and selectivity, FIG. 30a, FIG. 31. How it is done:
(§1) To increase the reproducibility of these sensors, an automated printing method of the chitosan gel was introduced (FIG. 35). Patterned glass microscope slides (Tekdon™) were inserted in a microarray printer (Digilab MicroSys System™), where the robotic head was programmed to dispense alternating layers of chitosan-SWNT (0.25 wt % chitosan (CHI), 1 vol % acetic acid, 30 ug/ml suspended (6,5) SWNT) and crosslinker (10 vol % glutaraldehyde). The suspended SWNT was made from Southwest Nanotechnologies, Inc. CoMoCAT® nanotubes sonicated in 0.25 wt % chitosan (CHI) and 1 vol % acetic acid for 45 minutes at 40% amplitude with a probe-tip sonicator (Cole Parmer, Model CV18). […] The chips were printed in a humidified enclosure (85% RH) at 25° C. and allowed to cross-link overnight in the same environment. Nickel-NTA groups were introduced as previously reported^8; see FIG. 3. Briefly, the chips were washed with a dilute basic buffer (0.01 M NaOH) and water three times. Carboxylic acid groups were introduced to the chitosan wrapped SWNT by bathing the chips in succinic anhydride (0.1 M) overnight. The chips were then washed three times with water and the carboxylic acid groups were activated via N-(3-dimethylaminopropyl)-N′-ethylcarbo diimide hydrochloride (EDC-0.1M) and N-hydroxysuccinimide (NHS-0.1M). The chips were bathed in this solution for 2 hours at 25° C. and examined for the expected formation of bubbles. The chips were again washed and allowed to bathe in a solution of a linked tricarboxylic acid group (Nα,Nα-bis(carboxymethyl)-L-lysine a.k.a. NTA-33 mM) overnight. The chips were washed in water again and stored in a 100 mM solution of NiSO4 to allow maximum binding of nickel to the NTA chelating groups.
(§2) A custom-made near infrared inverted microscope (Zeiss D.1 Observer™) setup allowed us to probe the fluorescent emissions of our SWNT sensors (FIG. 26a). The chips were secured on the microscope stage and the objective (50×/0.7 Zeiss™) was pushed in contact with a blank portion of the glass slide (no SWNT-CHI) to obtain a 5 second background spectrum, which was subtracted from the response spectra. The objective was then moved under a SWNT-CHI gel spot and again pushed in contact with the glass slide. […] The SWNT were excited by a 785 nm laser (B&W Tek™—495 mW) and the emission was sent to a spectrometer (Princeton Instruments Acton SpectraPro 2500i Spectrograph™) and accompanying nIR camera (Intervac MOSIR Camera 350™) The spectra were collected via WinSpec software (Princeton Instruments™) and analyzed with custom Matlab (Mathworks™) code. To maximize signal stability, the spectrometer was cooled with liquid nitrogen two hours prior to experimentation and the laser was allowed to reach peak stability for two hours. […] Data was gathered in the form of emission intensity spectra (950-1250 nm) integrated for 5 seconds.
(§3) A typical experiment was run for approximately 1000 frames (at 5 seconds each) and included a few addition and washing steps to detect lectin-glycan binding (FIG. 26b). First NiSO4 was again added to ensure that the SWNT sensors were responsive and that the NTA chelating groups were fully loaded with Ni^++ groups. The nickel was then washed away with PBS three times, leaving 20 ul of PBS on the sensors. The His-tag lectin was then added to the sensor (20 μl at 2 mg/ml) and allowed to bind for 300 seconds.

The target of test [1] is T2, GafD lectin (Escherichia coli, UniProt Q47341). The class given is binding. Further details: made in house; host or cells: E. coli BL21(DE3) Star. The settings on record: for sensor response / cross response to GafD lectin: controls and selectivity, FIG. 30a, FIG. 31. How it is done:
as §1, §2, §3

For test [2], the system named is SWNT-Chitosan lectin sensors. As to the kind of experiment: Ensemble chitosan-SWNT sensor measurements, controls and overall response (lectin not stated). The settings on record: FIG. 30a. The test is classed as binding. How it is done: To increase the reproducibility of these sensors, an automated printing method of the chitosan gel was introduced (FIG. 35). Patterned glass microscope slides (Tekdon™) were inserted in a microarray printer (Digilab MicroSys System™), where the robotic head was programmed to dispense alternating layers of chitosan-SWNT (0.25 wt % chitosan (CHI), 1 vol % acetic acid, 30 ug/ml suspended (6,5) SWNT) and crosslinker (10 vol % glutaraldehyde). The suspended SWNT was made from Southwest Nanotechnologies, Inc. CoMoCAT® nanotubes sonicated in 0.25 wt % chitosan (CHI) and 1 vol % acetic acid for 45 minutes at 40% amplitude with a probe-tip sonicator (Cole Parmer, Model CV18). For each sensor spot ten alternating layers of SWNT-CHI and cross-linker were printed at […] per layer, resulting in a highly-uniform gel of 1 ul SWNT-CHI material. […]
A custom-made near infrared inverted microscope (Zeiss D.1 Observer™) setup allowed us to probe the fluorescent emissions of our SWNT sensors (FIG. 26a). […] The SWNT were excited by a 785 nm laser (B&W Tek™—495 mW) and the emission was sent to a spectrometer (Princeton Instruments Acton SpectraPro 2500i Spectrograph™) and accompanying nIR camera (Intervac MOSIR Camera 350™) The spectra were collected via WinSpec software (Princeton Instruments™) and analyzed with custom Matlab (Mathworks™) code. […]

Test [3] deals with T2, GafD lectin. The settings on record: probe 1 mg/ml with GafD 3 mg/ml in solution.
Experimental: The interaction between lection and glycan was analyzed by 15% native PAGE according to the method of Schagger and von Jagow with minor modifications. […] Briefly, blectrophoresis was performed using Mini Protean Electrophoresis system (Bio-Rad, USA™) for molecular interaction under nondenaturing conditions. Nonreduced protein/glycan samples in the sample buffer (20% glycerol, 200 mM Tris-HCl, pH 6.8, 0.05% bromophenol blue) were applied to the gel (gel buffer: 25 mM Tris-HCl, 200 mM glycine). Electrophoresis was performed at 80 V for 120 min. After electrophoresis, the protein bands were visualized by staining with Coomassie Brilliant Blue R-250.
In test [4] the target is T2, GafD lectin. To be noted: 10 μM probe, sum of noise-reduced traces from 150 individual SWNT sensors.
Experimental: A second custom microscope was used to collect emission intensities of single SWNT sensors (FIG. 27a). The SWNT-CHI gel was diluted to 3 μg/ml of SWNT and spin-coated (3000 rpm for 30 s on Make of SpinCoater™) on glass-bottom petridishes (MarTec Corp™). The petri-dishes were then placed on the microscope platform (Zeiss D.1 Observer) and the oil-immersed objective (Zeiss™ 100×/1.46) was focused on the SWNT sensors on the glass surface. The SWNT were excited by a 660 nm laser (Crystal Laser—100 mW) and the emission intensities were recorded by a nitrogen-cooled InGaAs array (Princeton Instruments™). […] These Tiff images were then analyzed using custom Matlab code (Mathworks™) to construct a intensity versus time trace for each SWNT sensor (FIG. 27c).
The use of single nanotube spectroscopy allowed this question to be addressed (FIG. 32). […] Using software developed in house, the movies of SWNT fluorescence were analyzed and intensity time traces were extracted for each of the individual SWNT sensors (FIG. 37).^24b An efficient algorithm for fitting large quantities of these time traces to embedded fluorescent levels was used.^35 Briefly, the algorithm used an optimized form of an established noise-reduction algorithm for biological experiments^36 to clean the traces (FIG. 37c). It then evaluated all-points histograms of each trace to determine the unique fluorescent states of each trace. […]
The next test addresses CDK4 (Homo sapiens, UniProt P11802). As to the kind of experiment: Protein-protein interaction on SWNT/CHI array, Förster distance calculation. To be noted: distance change after analyte protein CDK4, Förster equation.
Setting [5] is: from concentration dependent curves, analyte to PA-IIL.
Setting [6] is: after Ni2+ and GafD lectin loading, FIG. 29a-b.
[7] abbreviates: from concentration dependent curves, analyte to GafD.

Like-named read-outs stand apart in the source and are kept apart here.

T2 sequence (Q47341 23-343): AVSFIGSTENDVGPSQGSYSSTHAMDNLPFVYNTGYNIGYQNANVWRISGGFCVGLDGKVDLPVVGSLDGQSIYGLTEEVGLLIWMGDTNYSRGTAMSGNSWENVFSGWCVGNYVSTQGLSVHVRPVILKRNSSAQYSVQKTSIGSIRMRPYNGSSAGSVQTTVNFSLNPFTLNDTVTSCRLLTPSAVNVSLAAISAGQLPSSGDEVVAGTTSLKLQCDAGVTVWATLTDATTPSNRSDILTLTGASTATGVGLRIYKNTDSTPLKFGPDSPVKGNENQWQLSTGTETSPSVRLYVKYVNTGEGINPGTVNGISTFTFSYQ
T1 sequence (Q9HYN5 entry or part of it): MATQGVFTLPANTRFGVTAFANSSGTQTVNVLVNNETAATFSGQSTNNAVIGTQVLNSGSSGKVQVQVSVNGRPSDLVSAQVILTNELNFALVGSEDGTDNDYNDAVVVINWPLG
Sequence of CDK4 (P11802 with tags, fused parts or gaps): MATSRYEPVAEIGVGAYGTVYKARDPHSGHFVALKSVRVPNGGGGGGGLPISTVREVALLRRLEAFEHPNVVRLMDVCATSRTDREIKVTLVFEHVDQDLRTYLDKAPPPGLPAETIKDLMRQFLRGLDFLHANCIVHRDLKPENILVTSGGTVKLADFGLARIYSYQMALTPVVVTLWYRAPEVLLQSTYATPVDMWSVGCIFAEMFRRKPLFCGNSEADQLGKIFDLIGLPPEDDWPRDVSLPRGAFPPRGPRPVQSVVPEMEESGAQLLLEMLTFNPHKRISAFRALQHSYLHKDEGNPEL
Experimental for CDK4: Reaction mixtures for cell-free protein expression were added to each array wells. The fluorescent intensities of each SWNT/CHI well were taken to track the intensity changes. To initiate protein synthesis, 1 μl PCR-amplified DNAs were added to each well a humidified chamber at 37° C. for 2 hours. The arrays were washed three times for 10 min each with PBS buffer (pH 7.4, 100 mM) at RT and then PL spectra were taken. To analyze protein-protein interaction on SWNT/XHI array, anti-Histag antibody or cell-free expressed protein mixtures were added to each well and then PL spectra were taken to compare the intensity change.
Near-infrared photoluminescence spectra were acquired using 785 nm excitation and an Acton SP-150 spectrograph coupled to a Princeton instruments OMA V InGaAs detector or with Kaiser Holospec f/1.8 Imaging Spectrograph (Kaiser Optical).

Consider “Fuc-Strept: model glycoprotein probe: biotinylated fucose glycan bound to streptavidin”, for which the “sensor response / cross response to PA-IIL lectin” value in the test with PA-IIL lectin is “positive response”. For the same compound, the Kf with PA-IIL lectin (setting [5]) worked out at 0.0001 µM/s. Moreover, in the test with GafD lectin [1], the “sensor response / cross response to GafD lectin” value is recorded as “small affinity”.

The Kd is the equilibrium constant for the complex coming apart. A lower Kd goes with a tighter complex. Consider “GlcNAcβ-SpNH-LC-LC-Biotin [GlcNAc-Biotin]”, for which the “time response (loading curve) upon analyte addition” value (shortened to “time response”) on GafD lectin [1] (setting [6]) was “loading curve was observed”. At GafD lectin [1] (setting [7]), this compound displayed an equilibrium dissociation constant (Kd) of 19 µM, a Kf of 0.0002 µM/s and a kr of 0.0037 s⁻¹.

Turning to `O=C(O)CCCC[C@@H]1SC[C@@H]2NC(=O)N[C@@H]21` [biotin], in test [2], the “sensor response of controls” value is listed as “negligible response”.

Regarding “GlcNAc-Strept: model glycoprotein probe: biotinylated GlcNAc glycan bound to streptavidin”, the “complex formation on native PAGE gel” value with GafD lectin [3] was “bound complex”. Also, the “signal modulation (response)” value in the test with GafD lectin [4] is given as about 3.5%. In addition, the “sensor response / cross response to PA-IIL lectin” value in the test with PA-IIL lectin is “negligible binding”. In the test with GafD lectin [1] (setting [6]), the “time response” value is given as “SPR-like loading curve was observed”. In addition, the “sensor response / cross response to GafD lectin” value with GafD lectin [1] is given as “positive response”. In the test with GafD lectin [1] (setting [7]), the Kf is 0.0003 µM/s and the kr was found to be 0.015 s⁻¹.

Regarding “p16: human derived protein (ExPASy P42771), on-chip cell-free expressed with His-tag”, in the test with CDK4, the Δd2 is recorded as 0.05174.

At PA-IIL lectin (setting [5]), “Fucα1-2Galβ1-4Glcβ-SpNH-LC-LC-Biotin [Fuc-Biotin]” gave a Kd of 106 µM, a Kf of 7e-05 µM/s and a kr of 0.0074 s⁻¹.

With “blank streptavidin: streptavidin (Sigma Aldrich SO677) without glycan”, the “sensor response of controls” value in test [2] is reported as “negligible response”. For the same compound, the “time response” value with GafD lectin [1] (GafD lectin biotinylated, positive control, FIG. 29c) is recorded as “expected loading curve was observed”; with GafD lectin [1] (setting [6]), “No loading curve was observed”.
